Where no end group is shown, it is not given here.
Experiments:
Test in all cases: cell-based or functional assay
EGLN3 = molecular target: EGLN3
EGLN2 = molecular target: EGLN2
EGLN1 = molecular target: EGLN1

| Binder | Activity (%)* (EGLN3) | Activity (%)* (EGLN2) | Activity (%)* (EGLN1) |
| --- | --- | --- | --- |
| DTDLDREALAPYIPADDDFQ (not fully specified; printed as DTDLDREALApYIPADDDFQ) [DTDLDREALApYIPADDDFQ] | 49.8% | 15.7% | 19.9% |
| DTDLDFEALAPYIPADDDFQ [DTDLDFEALApYIPADDDFQ] | 142% | 58.6% | 65.2% |
| DTDLDTEAYAPYIPADDDFQ (not fully specified; printed as DTDLDTEAYApYIPADDDFQ) [DTDLDTEAYApYIPADDDFQ] | 36% | 25.6% | 24.1% |
| DTDLDLEMLRPYIPMDDDFQ (not fully specified; printed as DTDLDLEMLRpYIPMDDDFQ) [DTDLDLEMLRpYIPMDDDFQ] | 77.6% | 14.3% | 19.8% |
| DTDLDMEALAPYIPADDDFQ (not fully specified; printed as DTDLDMEALApYIPADDDFQ) [DTDLDMEALApYIPADDDFQ] | 128% | 79.1% | 86.4% |
| DTDLDTEAVAPYIPADDDFQ (not fully specified; printed as DTDLDTEAVApYIPADDDFQ) [DTDLDTEAVApYIPADDDFQ] | 26.8% | 19% | 16.6% |
| DTDLDYEALAPYIPADDDFQ (not fully specified; printed as DTDLDYEALApYIPADDDFQ) [DTDLDYEALApYIPADDDFQ] | 136% | 108% | 94.2% |
| DTDLDLEMLHPYIPMDDDFQ (not fully specified; printed as DTDLDLEMLHpYIPMDDDFQ) [DTDLDLEMLHpYIPMDDDFQ] | 68.2% | 3.47% | 2.41% |
| DTDLDLEAFAPYIPADDDFQ [DTDLDLEAFApYIPADDDFQ] | 76.4% | 73.9% | 82.2% |
| DTDLDLEAEAPYIPADDDFQ [DTDLDLEAEApYIPADDDFQ] | 16.9% | 13.2% | 9.97% |
| DTDLDLEMLEPYIPMDDDFQ (not fully specified; printed as DTDLDLEMLEpYIPMDDDFQ) [DTDLDLEMLEpYIPMDDDFQ] | 52.8% | 3.35% | 2.27% |
| DTDLDVEALAPYIPADDDFQ (not fully specified; printed as DTDLDVEALApYIPADDDFQ) [DTDLDVEALApYIPADDDFQ] | 115% | 29% | 31.5% |
| DTDLDLEAQAPYIPADDDFQ [DTDLDLEAQApYIPADDDFQ] | 39.4% | 19.1% | 23.4% |
| DTDLDLEMLQPYIPMDDDFQ (not fully specified; printed as DTDLDLEMLQpYIPMDDDFQ) [DTDLDLEMLQpYIPMDDDFQ] | 59.9% | 38.1% | 45.1% |
| DTDLDAEATAPYIPADDDFQ [DTDLDAEATApYIPADDDFQ] | 18.5% | 19.4% | 20.8% |
| DTDLDTEAIAPYIPADDDFQ (not fully specified; printed as DTDLDTEAIApYIPADDDFQ) [DTDLDTEAIApYIPADDDFQ] | 19% | 25.3% | 23.7% |
| DTDLDLEAIAPYIPADDDFQ [DTDLDLEAIApYIPADDDFQ] | 104% | 89% | 88% |
| DTDLDNEALAPYIPADDDFQ (not fully specified; printed as DTDLDNEALApYIPADDDFQ) [DTDLDNEALApYIPADDDFQ] | 57.6% | 21.4% | 27.1% |
| DTDLDAEAIAPYIPADDDFQ [DTDLDAEAIApYIPADDDFQ] | 25.7% | 24% | 31.3% |
| DTDLDLEMLFPYIPMDDDFQ (not fully specified; printed as DTDLDLEMLFpYIPMDDDFQ) [DTDLDLEMLFpYIPMDDDFQ] | 59.3% | 0.63% | 4.16% |
| DTDLDVEATAPYIPADDDFQ (not fully specified; printed as DTDLDVEATApYIPADDDFQ) [DTDLDVEATApYIPADDDFQ] | 24% | 13.6% | 20.4% |
| DTDLDLEAGAPYIPADDDFQ [DTDLDLEAGApYIPADDDFQ] | 12.2% | 9.84% | 11.3% |
| DTDLDTEAFAPYIPADDDFQ (not fully specified; printed as DTDLDTEAFApYIPADDDFQ) [DTDLDTEAFApYIPADDDFQ] | 24.1% | 28.5% | 22.2% |
| DTDLDLEMLIPYIPMDDDFQ (not fully specified; printed as DTDLDLEMLIpYIPMDDDFQ) [DTDLDLEMLIpYIPMDDDFQ] | 101% | 17.8% | 15.6% |
| DTDLDHEALAPYIPADDDFQ [DTDLDHEALApYIPADDDFQ] | 55.8% | 21.5% | 23.4% |
| DTDLDLEASAPYIPADDDFQ [DTDLDLEASApYIPADDDFQ] | 25.1% | 31.6% | 29.6% |
| DTDLDLEMLLPYIPMDDDFQ (not fully specified; printed as DTDLDLEMLLpYIPMDDDFQ) [DTDLDLEMLLpYIPMDDDFQ] | 46.2% | -0.42% | 2.36% |
| DTDLDTEATAPYIPADDDFQ (not fully specified; printed as DTDLDTEATApYIPADDDFQ) [DTDLDTEATApYIPADDDFQ] | 16.5% | 24.8% | 21.9% |

Second part, the binder after the results:

| Activity (%)* (EGLN3) | Activity (%)* (EGLN2) | Activity (%)* (EGLN1) | Binder |
| --- | --- | --- | --- |
| 72.8% | 64.3% | 72.5% | DTDLDIEAIAPYIPADDDFQ [DTDLDIEAIApYIPADDDFQ] |
| 90.1% | 67.8% | 77.2% | DTDLDLEAYAPYIPADDDFQ (not fully specified; printed as DTDLDLEAYApYIPADDDFQ) [DTDLDLEAYApYIPADDDFQ] |
| 49% | 16.6% | 22.8% | DTDLDVEAVAPYIPADDDFQ (not fully specified; printed as DTDLDVEAVApYIPADDDFQ) [DTDLDVEAVApYIPADDDFQ] |
| 63.1% | 0.4% | 1.94% | DTDLDLEMLCPYIPMDDDFQ (not fully specified; printed as DTDLDLEMLCpYIPMDDDFQ) [DTDLDLEMLCpYIPMDDDFQ] |
| 68.6% | 78.6% | 79% | DTDLDLEARAPYIPADDDFQ [DTDLDLEARApYIPADDDFQ] |
| 63.2% | 54.9% | 68.2% | DTDLDLEATAPYIPADDDFQ [DTDLDLEATApYIPADDDFQ] |
| 7.18% | 8.63% | 12.6% | DTDLDAEAAAPYIPADDDFQ [DTDLDAEAAApYIPADDDFQ] |
| 4.11% | 8.82% | 10.5% | DTDLDAEASAPYIPADDDFQ [DTDLDAEASApYIPADDDFQ] |
| 61.3% | 23.8% | 23.9% | DTDLDIEAVAPYIPADDDFQ [DTDLDIEAVApYIPADDDFQ] |
| 30.4% | 34.4% | 33.2% | DTDLDIEANAPYIPADDDFQ [DTDLDIEANApYIPADDDFQ] |
| 74.5% | 57.7% | 68.7% | DTDLDLEMLKPYIPMDDDFQ (not fully specified; printed as DTDLDLEMLKpYIPMDDDFQ) [DTDLDLEMLKpYIPMDDDFQ] |
| 119% | 102% | 102% | DTDLDLEALAPYIPADDDFQ [DTDLDLEALApYIPADDDFQ] |
| 58.9% | 27.8% | 26.4% | DTDLDLEMLMPYIPMDDDFQ (not fully specified; printed as DTDLDLEMLMpYIPMDDDFQ) [DTDLDLEMLMpYIPMDDDFQ] |

— patent publication US20080113383A1 (FIBRO GEN, published 2008)
